These results are taken from the supplement of paper PMC9170038.

This data set deals with MS2 coat protein. Kind of data set: apparent KD of MS2 coat protein; designed switch direction (-1 OFF switch, 1 ON switch): -1; higher = weaker reporter binding. In short, it runs like this:
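On Illumina chips, designed RNA switches with common flanks were made by stalled E. coli RNA polymerase. Titrations with SNAP-549-labelled MS2 coat protein, doubling from 0.7 or 1.5 nM to 3 µM, were done with no input, with 200 uM small-molecule ligand, or with an oligonucleotide input. Apparent KD is the median per design over clusters, from curve fits of normalised cluster fluorescence.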

Setting [1] is: input ligand: microRNA oligo, concentration not stated.
The mark [2] stands for this setting: Eterna round: R95, input ligand: FMN 200 uM.
The mark [3] stands for this setting: Eterna round: R95, input ligand: microRNA oligo, concentration not stated.
[4] abbreviates: Eterna round: R95, input ligand: none.

In the case of “AGAUGGCGAGGAUAUACAUGAGGAUCACCCAUGUGAAGAUAAAGAGUGAGGAAGAAAAGUAGAAGGCGCUGUCA [Mat - Exclusion 3 - Mod of Salish D28] (Eterna round: R96, puzzle: Exclusion 3)”, under setting [1], the “apparent KD of MS2 coat protein” value came out at 103 nM.

For “AGAUGGCGAGGAUAUACAUGAGGAUCACCCAUGUGAAGAUAAAGAGUGAGGAAGAAAAGUAGAAGGCGCUGUCA [Mat - Exclusion 3 - Mod of Salish D28] (puzzle: Exclusion 3)”, the “apparent KD of MS2 coat protein” value by setting is: under setting [2], 351 nM; under setting [3], 106 nM; under setting [4], 123 nM.

For “AGAUGUAGAUACCGAUCCUACAUGAGGAUCACCCAUGUAGCUAGACGUGCGGGCGGCGCUCGUCGGACUACCAGUAG [salish99_TOv1_r3_095] (puzzle: Sensor v3, turn-off variant 1)”, the “apparent KD of MS2 coat protein” value under setting [2] stood at 163 nM, the “apparent KD of MS2 coat protein” value under setting [3] is 155 nM and the “apparent KD of MS2 coat protein” value under setting [4] worked out at 232 nM.

For the sequence “AGCACGCUUUUGCUCGAUCACAUGAGGAUCACCCAUGUGUGCUAAUAGGCCAAGGUGAAAGCCUCAGACAUAGUUUA [Eternabot (L1) Solution 1] (Eterna round: R97, puzzle: Sensor, turn-off variant 1)”, the “apparent KD of MS2 coat protein” value was 153 nM (input ligand: FMN 200 uM) and 173 nM (input ligand: none).

“AGCAUGGUAGGAUAUACGGAGCAUUAGGGUUUGUUGUGUGGACAUGAGGAUCACCCAUGUAGAAGGGCCGUGCA [Mat - Exclusion 2 - Mod of JL - D83] (puzzle: Exclusion 2)”: the “apparent KD of MS2 coat protein” value under setting [3] was found to be 33.5 nM.

Turning to “AGCCACAGAGGAUAUACAUACAUCCAGUAGCAGAUAUUGCUACAUGAGGAUCACCCAUGUAGAAGGCUGUGGCA [Omei Ex2 BD B21] (Eterna round: R97, puzzle: Exclusion 2)”, the “apparent KD of MS2 coat protein” value (input ligand: FMN 200 uM) came out at 139 nM and the “apparent KD of MS2 coat protein” value (input ligand: none) came to 1040 nM.

With “AGCCCUGCAGGAUAUGCCCGGGAUAACAUGAGGAUCACCCAUGUGACUGAUUGUUAUUCUGCAGAAGGGUAUGGGA [JL-EX5-4.16 ViennaUCT mod] (Eterna round: R97, puzzle: Exclusion 5)”, the “apparent KD of MS2 coat protein” value worked out at 404 nM (input ligand: FMN 200 uM) and 322 nM (input ligand: none).

In the case of “AGCCUACAUGAGGAUCACCCAUGUCAGGAUAUCUCGCGGCGCGUCAAGUUCACGCCGCAGAGAAGGGACUCGGG [Ceusxeatis] (puzzle: Exclusion 1)”, the “apparent KD of MS2 coat protein” value under setting [3] is 37.6 nM.

Take “AGCGAAAAGGCAGGAUAUGAGAAUAGAUAGAGCUCAGAAGGGCCACAUGAGGAUCACCCAUGUAAAGUCUUGAGGCUGCGUGGU [Prohibition 12 - Jieux - Exclusion NG 1] (Eterna round: R96, puzzle: Exclusion NG 1)”: the “apparent KD of MS2 coat protein” value is, setting by setting: (input ligand: FMN 200 uM) 488 nM; under setting [1], 68.4 nM; (input ligand: none) 60.4 nM.

For the sequence “AGCGAUCAUGUUAGGAUAUCCAAGCAGACGCUCAAGGAGAAGGAACAUGAGGAUCACCCAUGUUUGAUCCAAAC [Usrediza] (Eterna round: R97, puzzle: Brourd's mod of Exclusion 4)”, the “apparent KD of MS2 coat protein” value is, setting by setting: (input ligand: FMN 200 uM) 104 nM; (input ligand: none) 19.7 nM.

In the case of “AGCGGUGUUCAGGAUAUCUGGUUAUGACACAUGAGAGAAGGGAGCACAUGAGGAUCACCCAUGUGACCUUCGCG [Eternabot (Original) Solution 23] (Eterna round: R97, puzzle: Exclusion 6)”, the “apparent KD of MS2 coat protein” value by setting is: (input ligand: FMN 200 uM) 16 nM; (input ligand: none) 15.5 nM.

In the case of “AGCGUGGAGACAGGAUAUGAGAAUAGAUAGAACUCAGAAGGGUCACAUGAGGAUCACCCAUGUAAAGUCUUGAGGAUGAGUGGU [Prohibition 5 - Jieux - Exclusion NG 1] (Eterna round: R96, puzzle: Exclusion NG 1)”, the “apparent KD of MS2 coat protein” value by setting is: (input ligand: FMN 200 uM) 119 nM; under setting [1], 29 nM; (input ligand: none) 51.1 nM.

In the case of “AGCGUGGAGACAGGAUAUGAGAAUAGAUAGAACUCAGAAGGGUCACAUGAGGAUCACCCAUGUAAAGUCUUGAGGCUGCGUGGU [Prohibition 7 - Jieux - Exclusion NG 1] (Eterna round: R96, puzzle: Exclusion NG 1)”, the “apparent KD of MS2 coat protein” value turned out to be 341 nM (input ligand: FMN 200 uM), 74.1 nM under setting [1] and 109 nM (input ligand: none).

For “AGCUGUGGCCGAGGAUAUCUAAACCUUCAAACCGAGGUAUACUCGGACAUGAGGAUCACCCAUGUAGAGAAGGCGGUCUCAGCA [Eli eng2 - 035] (Eterna round: R96, puzzle: Exclusion NG 2)”, the “apparent KD of MS2 coat protein” value runs as follows: (input ligand: FMN 200 uM) 34.7 nM; under setting [1], 9.78 nM; (input ligand: none) 13.4 nM.

With “AGCUGUGGCCGAGGAUAUCUAACUUCAAUAACCGAAAUAUAAUCGGACAUGAGGAUCACCCAUGUAGAGAAGGCGGUCUCAGCA [Eli eng2 - 082] (Eterna round: R96, puzzle: Exclusion NG 2)”, under setting [1], the “apparent KD of MS2 coat protein” value amounted to 10.7 nM.

As to “AGCUGUGGCCGAGGAUAUUGCGAACCAUGGAAAACCAUGGAAACUCUACAUGAGGAUCACCCAUGUAAGAAGGCGGUCUCAGCA [Eli eng2 - 025] (Eterna round: R96, puzzle: Exclusion NG 2)”, the “apparent KD of MS2 coat protein” value amounted to 18.7 nM (input ligand: FMN 200 uM), 10.7 nM under setting [1] and 15.8 nM (input ligand: none).

For “AGCUUUUUGUUCGUCUUACACAUGAGGAUCACCCAUGUGUCGGACCGCAUCGAUAGAUGUAGACCGAGAAGCAUGGG [Omdei Mir OFFv1 C9] (Eterna round: R97, puzzle: Sensor, turn-off variant 1)”, the “apparent KD of MS2 coat protein” value (input ligand: FMN 200 uM) is 95.6 nM and the “apparent KD of MS2 coat protein” value (input ligand: none) is 98.9 nM.

Consider “AGGAUACAUGAGGAUCACCCAUGUGAGGAUAUACGAUAGCUCAGGAAGAGAUUAGUAUGUAGAAGGUGCGGGUG [Eternabot (L1) Solution 49] (Eterna round: R97, puzzle: Exclusion 1)”, for which the “apparent KD of MS2 coat protein” value is 205 nM (input ligand: FMN 200 uM) and 198 nM (input ligand: none).

On to “AGGAUGCUAGGAUAUACAGGUUGAAAACUGAUCGGCGCCAGACAUGAGGAUCACCCAUGUAGAAGGAGCGAGGC [EX2 B.26] (Eterna round: R97, puzzle: Exclusion 2)”, for which the “apparent KD of MS2 coat protein” value is 36.1 nM (input ligand: FMN 200 uM) and 38.7 nM (input ligand: none).

As to “AGGCCCGAUGGAGGAUAUGUAAGUAAUUGAGAUACUUCAUGUCACAUGAGGAUCACCCAUGUACGGCAGAAGGCCGACGGAGCC [Raanoner] (Eterna round: R96, puzzle: Exclusion NG 2)”, the “apparent KD of MS2 coat protein” value worked out at 24.9 nM (input ligand: FMN 200 uM), 17.3 nM under setting [1] and 20 nM (input ligand: none).

Consider “AGGGAUAAAGGAUAUACAUGAGGAUCACCCAUGUUGAGGAAAGUGAGAGGUGGCGAUAGUAGAAGGUUAGGUAG [JR_Exclu3_Sub082] (puzzle: Exclusion 3)”, for which the “apparent KD of MS2 coat protein” value came out at 86.8 nM under setting [2], 78.8 nM under setting [3] and 137 nM under setting [4].

Regarding “AGGGAUAAAGGAUAUACAUGAGGAUCACCCAUGUUGAGGAAAGUUAGAUGAGGAGGAAGUAGAAGGUUAGACGA [JR_Exclu3_Sub087] (puzzle: Exclusion 3)”, the “apparent KD of MS2 coat protein” value by setting is: under setting [2], 24.3 nM; under setting [3], 35.4 nM; under setting [4], 42.5 nM.

For “AGGUAACAUGAGGAUCACCCAUGUCAGGAUAUCAGUAAGAUUAGAAUAGAGUAGAGUAUGAGAAGGGACUAUAU [Excluse me! 20 - Jieux - Exclusion 1] (puzzle: Exclusion 1)”, the “apparent KD of MS2 coat protein” value by setting is: under setting [2], 33.3 nM; under setting [3], 37.3 nM; under setting [4], 50 nM.

Regarding “AGGUAGUCAGGAUAUUAGUAGUAGCGGGAUAACGCUACUAUUGAGAAGGGACAUGAGGAUCACCCAUGUUUUGU [JR_Ex4_Sub067] (Eterna round: R97, puzzle: Exclusion 4)”, the “apparent KD of MS2 coat protein” value runs as follows: (input ligand: FMN 200 uM) 54.7 nM; (input ligand: none) 22.5 nM.

Take “AGGUCCUUCUGGAGACAUGAGGAUCACCCAUGUCGAGUCAGCGAGGAUAUCGGUUAAUAAUGUGAUGAGAAGGCGCAGACCGAU [Ex NG3 #53] (Eterna round: R96, puzzle: Exclusion NG 3)”: the “apparent KD of MS2 coat protein” value stood at 15.5 nM (input ligand: FMN 200 uM), 8.55 nM under setting [1] and 11.3 nM (input ligand: none).

Consider “AGGUGCUUCAGGAGACAUGAGGAUCACCCAUGUUGAGUUAGCGAGGAUAUCGGUAACCCAUGUGAUGAGAAGGCGCAAACCAAU [Ex NG3 #46] (Eterna round: R96, puzzle: Exclusion NG 3)”, for which the “apparent KD of MS2 coat protein” value is 92.9 nM (input ligand: FMN 200 uM), 52.4 nM under setting [1] and 74.1 nM (input ligand: none).

As for “AGGUGCUUCUGGAGACAUGAGGAUCACCCAUGUUGAGUUAGCGAGGAUAUCGGUAACGCAUGUGAUGAGAAGGCGCAAACCAAU [Ex NG3 #47] (Eterna round: R96, puzzle: Exclusion NG 3)”, the “apparent KD of MS2 coat protein” value stood at 79.7 nM (input ligand: FMN 200 uM), 30.7 nM under setting [1] and 47 nM (input ligand: none).

“AGGUGUAGAGGAUAUACAGUGUAUUACAUGAGGAUCACCCAUGUCCUUCAAUGGGUGUCAGUAGAAGGCUACACCA [Omei Ex5 C2] (Eterna round: R97, puzzle: Exclusion 5)”: the “apparent KD of MS2 coat protein” value by setting is: (input ligand: FMN 200 uM) 255 nM; (input ligand: none) 1660 nM.

“AGUAACCGUCACGAAAGUGAUGGUUACACAAGUGUAAUAACAUGAGGAUCACCCAUGUCCUCAUUUGCUCGUCUUAU [Sensor 3 - 36] (puzzle: Sensor v3, turn-off variant 2)”: the “apparent KD of MS2 coat protein” value was 41.9 nM under setting [2], 121 nM under setting [3] and 49.4 nM under setting [4].
